Laboratory results as given in patent publication US20210017269A1 (GlaxoSmithKline, published 2021).

B1: 28Y042-7F11-1 (antibody, human IgG1, kappa)
heavy: QVTLRESGPALVKPTQTLTLTCTVSGFSLTGSSVHWVRQPPGKGLEWLGVIWASGGTDYNSALMSRLSISKDTSRNQVVLTMTNMDPVDTATYYCARDPPSGLLRLDYWGRGTLVTVSSASTKGPSVFPLAPSSKSTSGGTAALGCLVKDYFPEPVTVSWNSGALTSGVHTFPAVLQSSGLYSLSSVVTVPSSSLGTQTYICNVNHKPSNTKVDKRVEPKSCDKTHTCPPCPAPELLGGPSVFLFPPKPKDTLYITREPEVTCVVVDVSHEDPEVKFNWYVDGVEVHNAKTKPREEQYNSTYRVVSVLTVLHQDWLNGKEYKCKVSNKALPAPIEKTISKAKGQPREPQVYTLPPSREEMTKNQVSLTCLVKGFYPSDIAVEWESNGQPENNYKTTPPVLDSDGSFFLYSKLTVDKSRWQQGNVFSCSVMHEALHNHYTQKSLSLSPGK
light: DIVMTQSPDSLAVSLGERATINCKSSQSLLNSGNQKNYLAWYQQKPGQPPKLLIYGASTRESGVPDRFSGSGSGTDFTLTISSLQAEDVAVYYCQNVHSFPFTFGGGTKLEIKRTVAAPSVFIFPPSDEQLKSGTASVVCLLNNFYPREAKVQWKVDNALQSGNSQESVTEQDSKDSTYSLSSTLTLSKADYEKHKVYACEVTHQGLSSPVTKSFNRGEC
notes: Recombinant humanized monoclonal antibody, IgG1 kappa, two heavy and two light chains; also called GSK3511294
B2: mepolizumab (antibody)
chain 1: not shown
chain 2: not shown

Key:
[1] = target: T1, human IL-5 (recombinant) (human, UniProt P05113 20-134); assay: cell-based or functional assay
[2] = target: T2, human neonatal Fc receptor (FcRn) (human, UniProt P55899 24-297; P61769 21-119, limits assumed); assay: ProteOn SPR, human FcRn, pH 6.0
T2 construct: Recombinant human FcRn; also called human FcRn; recombinant human neonatal receptor

[3] = target: T2, human neonatal Fc receptor (FcRn); assay: ProteOn SPR, human FcRn, pH 6.0; remark: listed apart in the source
[4] = target: T1, human IL-5 (recombinant); assay: SPR Biacore T200, 37 °C
[5] = target: T3, cynomolgus IL-5 (cynomolgus); assay: SPR Biacore T200, 37 °C
T3 construct: also called cyno IL-5

[6] = target: T2, human neonatal Fc receptor (FcRn); assay: SPR Biacore T200, 37 °C, pH 6.0
Method: (§1) Table 17 legend/description: Comparison of binding affinity of 28Y042-7F11-1 and mepolizumab for human FcRn at pH 6.0 and pH 7.4.
(§2) The binding affinity of 28Y042-7F11-1 and mepolizumab to human FcRn at pH 6.0 and pH 7.4 was assessed using a BIACORE T200 instrument at 37° C. Human recombinant IL-5 was diluted in acetate buffer pH 5.0 and immobilised to a level of 535 RU by amine coupling on to a CMS chip (GE, BR100530). 28Y042-7F11-1 or mepolizumab were captured by flowing (5 μl/min) a 100 nM solution of either mAb in HBS-EP (Teknova, H8022) buffer for 24 seconds over the chip surface. Following capture of the antibody via the immobilised IL-5, cycles of varying concentrations (0.5 μM to 32 μM) of human FcRn were flowed over the chip surface at 5 μ1/min for 120 seconds contact time followed by 80 seconds dissociation for each cycle. At the completion of each cycle, the chip surface was regenerated using 10 mM Glycine pH 1.5 for 5 seconds at 50 μ1/min followed by 10mM NaOH for 5 seconds at 50 μl/min. FcRn cycles were performed for each concentration at pH 6.0 (HBS-EP+, Teknova, Cat: H8022, pH 6.0) and pH 7.4 (HBS-EP). A molecular weight of 42929 Da for human FcRn was used in the calculations.

[7] = target: T4, human complement component C1q (human, UniProt P02745 23-245; P02746 28-253; P02747 29-245); assay: ProteOn XPR36 SPR, antibody immobilised, C1q as analyte, equilibrium model
T4 construct: C1q from Sigma (C1740); also called human recombinant soluble complement C1q
Method: Binding of 28Y042-7F11-1 to human recombinant soluble complement C1q was assessed using the PROTEOn XPR36 (BioRad™) biosensor instrument. A control antibody containing the YTE change to its Fc region was included as a control.
The antibodies to be tested were immobilised on a GLC chip (Bio-Rad, 176-5011) by primary amine coupling (GE Healthcare, BR-1000-50). Recombinant C1q (Sigma, C1740) was passed over the immobilised antibodies at 512 nM, 128 nM, 32 nM, 8 nM, 2 nM and 0 nM (i.e., buffer alone) and a blank activated and deactivated flow cell was used to double reference binding curves. The running buffer for binding analysis was HBS-EP (pH7.4, Teknova, H8022) with 10 mM CaCl₂. Data were fitted to the equilibrium model, inherent to the PROTEON XPR36 (BioRad™) analysis software using a global R-max value.

[8] = target: T2, human neonatal Fc receptor (FcRn); assay: SPR Biacore T200, 37 °C, pH 7.4, antibody captured on immobilised IL-5, FcRn as analyte
Method: as §1, §2

[9] = target: T1, human IL-5 (recombinant); assay: KinExA solution phase affinity, 25 °C
Method: Kinetic analyses were performed to compare 28Y042-7F11-1, mepolizumab, and GSK3559090A (a comparator IgG1 anti-IL-5 mAb molecule based). Due to the high affinity of 28Y042-7F11-1, it was not possible to accurately determine the dissociation rate by Biacore 4000 at 25° C.; therefore KINEXA analysis was used to calculate an accurate affinity for 28Y042-7F11-1 binding to human IL-5 at 25° C.
Solution phase affinity measurements were made using Sapidyne's KINEXA 3200 instrument. The method relied on the detection of free antibody at equilibrium in a titrated series of antigen concentrations. For detection, a bead matrix was created using NHS-activated SEPHEROSE beads (GE Healthcare, 17-0906-01) coated with human IL-5. For affinity determination, a fixed concentration of antibody was incubated with a dilution series of human IL-5 concentrations and binding was allowed to reach equilibrium before the samples were run on the KINEXA 3200 instrument. Each solution was passed over an aliquot of the antigen beads where free antibody bound to the antigen coated beads and was detected using an anti-human IgG antibody (DYLIGHT 649-AFFINIPURE F(ab′)2 fragment goat anti-human IgG; Jackoson Immunoresearch, 109-496-170), with fresh antigen beads used to measure each sample.

[10] = target: T2, human neonatal Fc receptor (FcRn); assay: ProteOn SPR, human FcRn, pH 7.4
[11] = target: T2, human neonatal Fc receptor (FcRn); assay: SPR Biacore T200, 37 °C, pH 6.0, antibody captured on immobilised IL-5, FcRn as analyte
Method: as §1, §2

[12] = target: T1, human IL-5 (recombinant); assay: SPR Biacore 4000, 25 °C, antibody captured on protein A, human IL-5 as analyte

T4 sequence (P02745 23-245 limits assumed, chain 1 of 3): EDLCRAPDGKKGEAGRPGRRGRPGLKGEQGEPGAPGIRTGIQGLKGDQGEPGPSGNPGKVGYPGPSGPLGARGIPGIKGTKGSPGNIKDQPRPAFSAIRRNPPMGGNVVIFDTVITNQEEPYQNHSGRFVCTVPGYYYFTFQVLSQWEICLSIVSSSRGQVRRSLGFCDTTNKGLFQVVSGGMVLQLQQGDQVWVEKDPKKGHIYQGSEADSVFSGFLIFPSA
T4 sequence (P02746 28-253 limits assumed, chain 2 of 3): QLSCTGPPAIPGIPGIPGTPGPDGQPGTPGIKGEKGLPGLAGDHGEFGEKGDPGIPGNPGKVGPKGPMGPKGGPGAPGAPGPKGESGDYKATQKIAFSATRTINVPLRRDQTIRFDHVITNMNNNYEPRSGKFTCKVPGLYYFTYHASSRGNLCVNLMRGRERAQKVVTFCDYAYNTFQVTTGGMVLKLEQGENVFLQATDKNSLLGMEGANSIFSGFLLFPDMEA
T4 sequence (P02747 29-245 limits assumed, chain 3 of 3): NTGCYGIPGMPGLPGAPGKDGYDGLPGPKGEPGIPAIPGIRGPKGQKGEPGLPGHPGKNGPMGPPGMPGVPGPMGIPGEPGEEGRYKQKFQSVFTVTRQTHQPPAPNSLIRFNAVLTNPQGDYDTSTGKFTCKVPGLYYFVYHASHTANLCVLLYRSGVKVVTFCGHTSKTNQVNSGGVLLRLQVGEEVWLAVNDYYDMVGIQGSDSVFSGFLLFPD

Row | Binder | IC50 in the TF-1 cell assay after thermal stress (1 week at 40 °C in acetate or phosphate buffer) [1] | IC50 of inhibition of human IL-5 induced TF-1 cell proliferation [1] | fold improvement in TF-1 cell assay potency compared to mepolizumab [1] | Kd [2] | fold increase in affinity compared to the human IgG1 wild type control [3] | Kd [4] | Kd [5] | fold increase in affinity compared to mepolizumab [6] | Kd [7] | Kd [8] | Kd [9] | Kd [10] | Kd [11] | Kd [12]
1 | B1 | 4 to 5 pM | 4 pM | ~30 fold | 130 nM | ~3 fold | 0.0391 nM | 0.0239 nM | ~13 fold | 750 nM | 16.2 µM | 0.0105 nM | 2650 nM | 157 nM | 
2 | B2 |  | 105 pM |  |  |  |  |  |  |  |  |  |  | 2080 nM | 0.123 nM
